Data on one substance can be found in US20150366985A1.

The assay addresses protein A found on S. aureus (Staphylococcus aureus) (UniProt P02976). The experiment in a line: FACS, Alexa-488 labeled antibodies at 0.08-50 ug/mL on MRSA isolated from infected mouse kidneys; low level binding attributed by the filing to protein A. Background: In flow cytometry, cells or beads pass a laser one at a time.

Sequence of protein A found on S. aureus (Staphylococcus aureus) (P02976 37-485): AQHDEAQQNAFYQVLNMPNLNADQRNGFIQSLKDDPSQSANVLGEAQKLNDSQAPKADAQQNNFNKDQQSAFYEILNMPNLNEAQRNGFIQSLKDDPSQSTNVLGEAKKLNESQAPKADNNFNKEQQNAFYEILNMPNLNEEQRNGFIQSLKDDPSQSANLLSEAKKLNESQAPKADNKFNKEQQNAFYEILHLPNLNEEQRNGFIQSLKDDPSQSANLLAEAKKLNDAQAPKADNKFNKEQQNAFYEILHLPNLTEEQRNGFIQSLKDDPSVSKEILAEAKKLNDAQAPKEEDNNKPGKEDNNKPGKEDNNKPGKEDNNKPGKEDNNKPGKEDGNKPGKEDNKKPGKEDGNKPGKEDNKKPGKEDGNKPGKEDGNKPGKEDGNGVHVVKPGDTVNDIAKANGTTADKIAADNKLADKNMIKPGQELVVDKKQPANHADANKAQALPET

Substance “gD antibody (negative control human IgG1 that does not recognize S. aureus)” yielded a fold lower binding than the S4497 antibody (fold lower than S4497 antibody) of 30.
